Test results: patent publication US20190127480A1 (Regeneron, published 2019)
Changes are numbered by the printed parent chain. Each block holds one binder with its values, some of them ahead of it.

Legend:
[1] = target: T1, Soluble heterodimeric CD3 protein (hCD3-epsilon/hCD3-delta) with either a human Fc tag (hFcΔAdp/hFc) or a … (human, UniProt P07766 23-126; P04234 22-105); assay: SPR Biacore 25C antigen-capture
T1 construct: also called hCD3ε/δ; not shown: Fc tag: human (hFcΔAdp/hFc)
Procedure: (§1) Measurements were conducted on a T200 Biacore™ instrument.
In the antigen-capture format, heterodimeric CD3 protein was captured using a rabbit anti-mouse Fc or mouse anti-human Fc and the respective antibodies were injected over the captured antigen.
(§2) Kinetic association (kₐ) and dissociation (kd) rate constants were determined by processing and fitting the data to a 1:1 binding model using Scrubber 2.0 curve fitting software. Binding dissociation equilibrium constants (KD) and dissociative half-lives (t₁₁₂) were calculated from the kinetic rate constants as: KD (M)=kd/kₐ; and t_{1/2} (min)=(ln 2/(60*kd). NT=not tested; NB=no binding observed.

[2] = target: T1, Soluble heterodimeric CD3 protein …; assay: SPR Biacore 25C antibody-capture
Procedure: as §1
(§3) Soluble heterodimeric CD3 protein (hCD3-epsilon/hCD3-delta; SEQ ID NOs:1652/1653) with either a human Fc tag (hFcΔAdp/hFc; SEQ ID NOs:1683/1684) or a mouse Fc tag (mFcΔAdp/mFc; SEQ ID NOs:1685/1686) was injected over the antibody captured surface and the binding response was recorded. Heterodimeric CD3 protein was purified using the method described in Davis et al. (US2010/0331527).
as §2

[3] = target: T2, Soluble heterodimeric CD3 protein (hCD3-epsilon/hCD3-delta) with a human Fc tag (hFcΔAdp/hFc) or a mouse Fc … (human, UniProt P07766 23-126; P04234 22-105); assay: SPR Biacore, 25 C, antibody-capture format
T2 construct: also called hCD3ε/δ; not shown: Fc tag: human (hFcΔAdp/hFc); which tag was used in Ta
Procedure: as §1, §3, §2

T2 sequence (P07766 23-126 limits assumed, stated change not applied, chain 1 of 2): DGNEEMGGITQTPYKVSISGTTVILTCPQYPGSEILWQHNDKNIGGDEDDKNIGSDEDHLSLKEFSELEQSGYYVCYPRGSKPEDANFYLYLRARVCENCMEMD
T2 sequence (P04234 22-105 limits assumed, stated change not applied, chain 2 of 2): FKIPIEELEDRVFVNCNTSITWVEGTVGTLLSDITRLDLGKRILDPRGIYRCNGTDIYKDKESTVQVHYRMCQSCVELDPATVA
T1 sequence (P07766 23-126 limits assumed, stated change not applied, chain 1 of 2): as the sequence (P07766 23-126 limits assumed, stated change not applied, chain 1 of 2) above
T1 sequence (P04234 22-105 limits assumed, stated change not applied, chain 2 of 2): as the sequence (P04234 22-105 limits assumed, stated change not applied, chain 2 of 2) above

B2: H1H5782P (antibody, human IgG1, V domains shown)
VH: EVQLVESGGGLVQPGRSLRLSCAASGFTFDDYAMHWVRQAPGKGLEWVSGISWNSGSKDYADSVKGRFTISRDNTRNSLFLQMNSLRTEDTALYYCAKDKSGYGSFYYGMDVWGQGTTVTVSS
VL: not shown
notes: H1H: human IgG1 Fc; divalent
binding result [2]: no binding

B4: H1H5772S (antibody, V domains shown)
VH: B2 VH with E1Q, T28S, K43Q, S55G, K58R, T75A, R87F, F106Y, Y107F
VL: EIVLTQSPGILSLSPGDRATLSCRASQSIRNIYLAWYQQKPGQAPRLLIHGASTRATGIPDRFSGSGSGTDFTLTISRLEPEDFAVYYCQQRVSSPYTFGQGTKLEIK
notes: H1H: human IgG1 Fc; divalent; also called H1H5772P
Kd [1]: 1.67 nM
T½ [1]: 13 min
koff [1]: 0.000869 s⁻¹
kon [1]: 519000 M⁻¹ s⁻¹
Kd [2]: 99.6 nM
T½ [2]: 7 min
koff [2]: 0.00155 s⁻¹
kon [2]: 15600 M⁻¹ s⁻¹

B7: H1H5757B (antibody, human IgG1, V domains shown)
VH: EVQLVESGGGVVQPGRSLRLSCAASGFTFSSYGMHWVRQAPGKGLEWVTVILHDGSNRYSADSVKGRFTISRDNSKNTLYLQMNILRVEDTAVYYCTKGAMVRGVPYNHYYGMDVWGQGTTVTVSS
VL: DIQMTQSPSSLSASVGDRVTITCRASQGIRNDLGWYQQKPGKAPKRLIYAASILQSGVPSRFSGSGSGTEFTLTISSLQPEDFATYYCLQHNSYPYTFGQGTKLEIKR
notes: H1H: human IgG1 Fc; divalent
Kd [1]: 1.64 nM
T½ [1]: 39 min
koff [1]: 0.000295 s⁻¹
kon [1]: 180000 M⁻¹ s⁻¹
Kd [2]: 118 nM
T½ [2]: 15 min
koff [2]: 0.000785 s⁻¹
kon [2]: 6630 M⁻¹ s⁻¹

B9: H2M3543N (antibody, V domains shown)
VH: EVQLVESGGGLVQPGRSLRLSCAASGFTFDDYTMHWVRQAPGKGLEWVSDISWNSGSIGYADSVKGRFTVSRDNAKNSLYLQMNSLRGEDTALYYCAKDMSGYAHYGYYGMDVWGQGTTVTVSS
VL: DIQMTQSPSSLSASVGDRVTITCRASQSIRNYLNWYQQKPGKVPKLLIYAASSLQSGVPSRFSGSGSGTDFTLTISSLQPEDFATYYCQQSYSNPPITFGQGTRLEIK
notes: Hybridoma antibody, human variable regions, mouse IgG2 Fc
Kd [3]: 30 nM
T½ [3]: 51 min
koff [3]: 0.000226 s⁻¹
kon [3]: 7530 M⁻¹ s⁻¹

B10: H2M3563N (antibody, V domains shown)
VH: B9 VH with Q3H, A104G, Y108K
VL: B9 VL with N31S, S76N, E81D, S91T
notes: as for B9
Kd [3]: 3.66 nM
T½ [3]: 97 min
koff [3]: 0.000119 s⁻¹
kon [3]: 32400 M⁻¹ s⁻¹

B11: H2M3547N (antibody, V domains shown)
VH: EAQLVESGGGLVQPGRSLRLSCTTSGFTFDDYTMHWVRQAPGKGLEWISDISWNGGTKGYADSVKGRFTISRDNAKNSLYLQMDSLRGEDTALYYCVKDKSGYGHFYFGLDVWGQGTTVTVSS
VL: B9 VL with S12T, I21F, R30S, N31R, Y32H, N34S, V43A, Q55E, Q79H
notes: as for B9
Kd [3]: 15.9 nM
T½ [3]: 33 min
koff [3]: 0.000347 s⁻¹
kon [3]: 21800 M⁻¹ s⁻¹

B13: H1H5764P (antibody, human IgG1, V domains shown)
VH: QVQLVESGGGVVQPGRSLRLSCAASGFTFRSFGMHWVRQAPGKGLEWVAVISYDGNYKYYADSVKGRFTISRDNSKNTLYLQMNSLRAEDTAVHYCAKGAMVRGVPYNFYYGMDVWGQGTTVTVSS
VL: DIQMTQSPSSLSASVGDRVTITCRASQVIRNDLGWYQQKPGKAPKRLIYAASSLQSGIPSRFSGSGSGTEFTLTISSLQPEDFATYYCLQHNSYPYTFGQGTKLEIK
notes: H1H: human IgG1 Fc; divalent
Kd [1]: 21 nM
T½ [1]: 2 min
koff [1]: 0.00736 s⁻¹
kon [1]: 350000 M⁻¹ s⁻¹
Kd [2]: 3820 nM
T½ [2]: 1 min
koff [2]: 0.0159 s⁻¹
kon [2]: 4160 M⁻¹ s⁻¹

B14: H1M3544N (antibody, V domains shown)
VH: EVQLVESGGGLVQPGRSLRLSCAASGFTFDDYTMHWVRQVPGKGLEWVSGISWNSGSLAYADSVKGRFTISRDNAKNSLYLQMNSLHPEDTALYYCVKDGSGYGHYSYYGLDVWGQGTTVTVSS
VL: not shown
notes: Hybridoma antibody, human variable regions, mouse IgG1 Fc
T½ [3]: 82 min

B15: H1H5752P (antibody, human IgG1, V domains shown)
VH: QVQLVESGGGVVQPGRSLRPSCAASGFSFRDYGMHWVRQAPGKGLEWMAHIWYNGKNKYYADSVKGRFTISRDNSKNTLYLQMNSLRPEDTAVYYCARDGVSARGTPFDYWGQGTLVTVSS
VL: ETTLTQSPAFMSAAPGDKVSISCIASQYIDDDVNWYQQKPGETAIFIIQEASTLVPGISPRFSGSGYGTHFTLTINNIDSEDAAFYFCLQHDNFPYTFGQGTKLEIK
notes: H1H: human IgG1 Fc; divalent
binding result [2]: no binding

B16: H1H5788P (antibody, V domains shown)
VH: EVQLVESGGGLVQPGRSLRLSCAASGFTFDDYTMHWVRQAPGKGLEWVSGISWNSGSIGYADSVKGRFTISRDNAKNSLYLQMNSLRAEDTALFYCAKDQSGYGHYYYGMDVWGQGTTVTVSS
VL: EIVMTQSPATLSVSPGERATLSCRASQSVSSNLAWYQQKPGQAPRLLIYGASTRATDIPARFSGSGSGTEFTLTISSLQSEDFAVYHCQQYNNWPLTFGGGTKVEIK
notes: H1H: human IgG1 Fc; divalent
Kd [1]: 2.33 nM
T½ [1]: 70 min
koff [1]: 0.000164 s⁻¹
kon [1]: 70600 M⁻¹ s⁻¹
Kd [2]: 101 nM
T½ [2]: 40 min
koff [2]: 0.000291 s⁻¹
kon [2]: 2880 M⁻¹ s⁻¹

B18: H2M3548N (antibody, V domains shown)
VH: B16 VH with T28K, D30A, T33A, G50E, A61V, F94Y, A97V, Q100K, Y108I, T120I
VL: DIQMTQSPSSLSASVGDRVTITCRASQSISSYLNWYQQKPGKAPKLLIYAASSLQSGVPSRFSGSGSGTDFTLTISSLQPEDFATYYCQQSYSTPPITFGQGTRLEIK
notes: as for B9
Kd [3]: 130 nM
T½ [3]: 2 min
koff [3]: 0.00504 s⁻¹
kon [3]: 38700 M⁻¹ s⁻¹

The next lines start with the values.

Kd [1]: 0.371 nM
T½ [1]: 34 min
koff [1]: 0.000342 s⁻¹
kon [1]: 923000 M⁻¹ s⁻¹
Kd [2]: 20.9 nM
T½ [2]: 18 min
koff [2]: 0.000626 s⁻¹
kon [2]: 30000 M⁻¹ s⁻¹
B1: H1H5771P (antibody, human IgG1, V domains shown)
VH: B2 VH with T28S, D31N, K43Q, K58R, T75A, R87S, T88N, L93M, F106Y, Y107F
VL: B4 VL with I10T, S95L
notes: H1H: human IgG1 Fc; divalent

Kd [1]: 0.358 nM
T½ [1]: 68 min
koff [1]: 0.000171 s⁻¹
kon [1]: 478000 M⁻¹ s⁻¹
Kd [2]: 30.4 nM
T½ [2]: 29 min
koff [2]: 0.000399 s⁻¹
kon [2]: 13100 M⁻¹ s⁻¹
B3: H1H5780P (antibody, human IgG1, V domains shown)
VH: B2 VH with S55G, F80S, T88I, M110L
VL: B4 VL with I10T, N31S
notes: H1H: human IgG1 Fc; divalent

Kd [1]: 0.767 nM
T½ [1]: 105 min
koff [1]: 0.000111 s⁻¹
kon [1]: 144000 M⁻¹ s⁻¹
Kd [2]: 32.6 nM
T½ [2]: 43 min
koff [2]: 0.000266 s⁻¹
kon [2]: 8150 M⁻¹ s⁻¹
B5: H1H5756B (antibody, human IgG1, V domains shown)
VH: EVQLVESGGGVVQPGRSLRLSCTASGFPFSRYGMHWVRQAPGKGLEWVTFIWYDGSNKYYADSAKGRFTITRDNSKNTVYLQMDSLRADDTAVYYCVRDQAALYYFDSWGQGTLVTVSS
VL: DIQMTQSPSSVSASVGDRVTITCRASQGISRWLAWYQQKPGKAPKLLISAASSLQSGVPSRFSGSGSGTDFTLTISGLQPEDFATYYCQKANSFPFTFGPGTKLEIKR
notes: H1H: human IgG1 Fc; divalent

Kd [1]: 0.936 nM
T½ [1]: 57 min
koff [1]: 0.000201 s⁻¹
kon [1]: 215000 M⁻¹ s⁻¹
Kd [2]: 57.5 nM
T½ [2]: 24 min
koff [2]: 0.000472 s⁻¹
kon [2]: 8210 M⁻¹ s⁻¹
B6: H1H5755B (antibody, human IgG1, V domains shown)
VH: B7 VH with S31N, N57Y, R58K, S60Y, Y80H, I85S, V88T, T97A, A100P, V102F
VL: B7 VL with I53S, P59S, L104V
notes: H1H: human IgG1 Fc; divalent

Kd [1]: 3.97 nM
T½ [1]: 21 min
koff [1]: 0.000562 s⁻¹
kon [1]: 142000 M⁻¹ s⁻¹
Kd [2]: 233 nM
T½ [2]: 10 min
koff [2]: 0.00117 s⁻¹
kon [2]: 5020 M⁻¹ s⁻¹
B8: H1H5758B (antibody, human IgG1, V domains shown)
VH: B7 VH with S60Y, V88A
VL: B7 VL with Q3V, I53N
notes: H1H: human IgG1 Fc; divalent

Kd [1]: 92.4 nM
T½ [1]: 1 min
koff [1]: 0.017 s⁻¹
kon [1]: 184000 M⁻¹ s⁻¹
Kd [2]: 2920 nM
T½ [2]: 0 min
koff [2]: 0.054 s⁻¹
kon [2]: 18500 M⁻¹ s⁻¹
B12: H1H5763P (antibody, human IgG1, V domains shown)
VH: B13 VH with F27L, R30S, F32Y, N56S, Y57N, A61T, H94Y, F109Y
VL: B13 VL with V28G, I58V
notes: H1H: human IgG1 Fc; divalent

Kd [1]: 0.971 nM
T½ [1]: 133 min
koff [1]: 8.68e-05 s⁻¹
kon [1]: 89300 M⁻¹ s⁻¹
Kd [2]: 88.2 nM
T½ [2]: 43 min
koff [2]: 0.00027 s⁻¹
kon [2]: 3060 M⁻¹ s⁻¹
B17: H1H2712N (antibody, human IgG1, V domains shown)
VH: B16 VH with R16G, S25T, Y32F, A61V, F94Y, Q100N, H105Y
VL: B16 VL with Q27H, S31R, L33S, D57G, V85I, H87Y
notes: H1H: human IgG1 Fc; divalent
